From US20220332804A1 (CSL INNOVATION, published 2022)

How the values were obtained:
Assay in all cases: SPR; KD relative to WT C2;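 note: biacore SPR at 37 °C, anti-C2 mAbs captured on an anti-human IgG chip, alanine or serine C2 surface mutants tested, KD from 1:1 fit compared with wild-type C2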
[1] = target: T1, human C2 N325A (human, UniProt P06681 21-752)
T1 sequence: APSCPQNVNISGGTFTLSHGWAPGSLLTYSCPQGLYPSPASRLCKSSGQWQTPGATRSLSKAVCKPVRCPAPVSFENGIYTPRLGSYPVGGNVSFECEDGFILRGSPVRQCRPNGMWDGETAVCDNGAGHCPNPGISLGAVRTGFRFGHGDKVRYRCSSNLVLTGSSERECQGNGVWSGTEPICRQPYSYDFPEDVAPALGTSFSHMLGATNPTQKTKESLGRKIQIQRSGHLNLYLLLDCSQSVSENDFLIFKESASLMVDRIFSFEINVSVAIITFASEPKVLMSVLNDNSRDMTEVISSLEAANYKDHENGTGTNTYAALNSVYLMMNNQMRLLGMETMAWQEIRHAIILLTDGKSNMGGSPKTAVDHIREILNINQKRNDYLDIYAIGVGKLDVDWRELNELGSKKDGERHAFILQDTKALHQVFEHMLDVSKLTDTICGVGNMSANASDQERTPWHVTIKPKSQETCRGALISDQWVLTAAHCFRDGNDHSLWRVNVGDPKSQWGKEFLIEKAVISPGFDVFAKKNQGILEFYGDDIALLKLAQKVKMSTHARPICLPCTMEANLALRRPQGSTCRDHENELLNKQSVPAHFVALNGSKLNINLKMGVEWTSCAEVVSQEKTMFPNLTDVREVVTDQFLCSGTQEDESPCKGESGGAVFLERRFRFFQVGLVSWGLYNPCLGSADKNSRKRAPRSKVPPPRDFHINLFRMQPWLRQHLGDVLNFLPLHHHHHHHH

[2] = target: T2, human C2 A470S (human, UniProt P06681 21-752)
T2 sequence: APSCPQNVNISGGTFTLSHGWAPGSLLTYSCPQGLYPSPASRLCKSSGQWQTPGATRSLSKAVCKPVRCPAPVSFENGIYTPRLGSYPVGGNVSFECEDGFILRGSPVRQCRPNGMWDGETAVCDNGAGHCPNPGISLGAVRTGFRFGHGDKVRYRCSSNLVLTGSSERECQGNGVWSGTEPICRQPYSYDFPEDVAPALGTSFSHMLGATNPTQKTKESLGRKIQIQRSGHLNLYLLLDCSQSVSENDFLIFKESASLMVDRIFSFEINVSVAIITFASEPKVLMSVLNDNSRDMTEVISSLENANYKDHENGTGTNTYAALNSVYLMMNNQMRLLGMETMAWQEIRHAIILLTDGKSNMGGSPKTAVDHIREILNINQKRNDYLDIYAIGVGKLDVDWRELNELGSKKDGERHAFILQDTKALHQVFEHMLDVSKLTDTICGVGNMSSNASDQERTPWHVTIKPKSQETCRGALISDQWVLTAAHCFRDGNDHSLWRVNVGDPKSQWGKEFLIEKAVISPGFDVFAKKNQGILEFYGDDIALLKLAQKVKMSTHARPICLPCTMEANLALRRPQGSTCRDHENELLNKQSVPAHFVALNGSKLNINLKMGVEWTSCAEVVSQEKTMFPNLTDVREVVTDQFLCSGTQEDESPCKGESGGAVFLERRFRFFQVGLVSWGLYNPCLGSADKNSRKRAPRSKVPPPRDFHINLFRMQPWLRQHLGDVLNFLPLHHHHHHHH

[3] = target: T3, human C2 G427A (human, UniProt P06681 21-752)
T3 sequence: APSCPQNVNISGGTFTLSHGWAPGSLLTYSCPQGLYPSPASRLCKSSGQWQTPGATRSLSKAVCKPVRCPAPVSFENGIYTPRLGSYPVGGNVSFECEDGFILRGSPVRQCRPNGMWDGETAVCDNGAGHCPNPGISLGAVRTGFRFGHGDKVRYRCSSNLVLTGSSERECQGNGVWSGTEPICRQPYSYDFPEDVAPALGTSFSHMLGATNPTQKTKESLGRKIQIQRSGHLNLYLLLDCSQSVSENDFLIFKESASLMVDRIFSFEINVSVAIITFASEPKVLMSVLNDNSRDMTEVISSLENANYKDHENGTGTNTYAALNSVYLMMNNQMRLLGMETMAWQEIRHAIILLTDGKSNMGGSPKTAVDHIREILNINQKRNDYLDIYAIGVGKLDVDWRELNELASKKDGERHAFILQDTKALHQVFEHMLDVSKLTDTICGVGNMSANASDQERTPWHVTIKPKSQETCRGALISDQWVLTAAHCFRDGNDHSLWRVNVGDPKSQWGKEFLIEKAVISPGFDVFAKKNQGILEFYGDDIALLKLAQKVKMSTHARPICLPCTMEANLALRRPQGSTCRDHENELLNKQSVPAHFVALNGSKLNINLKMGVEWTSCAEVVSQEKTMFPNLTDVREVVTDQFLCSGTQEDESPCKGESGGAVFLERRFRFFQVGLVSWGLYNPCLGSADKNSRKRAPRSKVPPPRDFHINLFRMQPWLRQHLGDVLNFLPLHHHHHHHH

[4] = target: T4, human C2 L439A (human, UniProt P06681 21-752)
T4 sequence: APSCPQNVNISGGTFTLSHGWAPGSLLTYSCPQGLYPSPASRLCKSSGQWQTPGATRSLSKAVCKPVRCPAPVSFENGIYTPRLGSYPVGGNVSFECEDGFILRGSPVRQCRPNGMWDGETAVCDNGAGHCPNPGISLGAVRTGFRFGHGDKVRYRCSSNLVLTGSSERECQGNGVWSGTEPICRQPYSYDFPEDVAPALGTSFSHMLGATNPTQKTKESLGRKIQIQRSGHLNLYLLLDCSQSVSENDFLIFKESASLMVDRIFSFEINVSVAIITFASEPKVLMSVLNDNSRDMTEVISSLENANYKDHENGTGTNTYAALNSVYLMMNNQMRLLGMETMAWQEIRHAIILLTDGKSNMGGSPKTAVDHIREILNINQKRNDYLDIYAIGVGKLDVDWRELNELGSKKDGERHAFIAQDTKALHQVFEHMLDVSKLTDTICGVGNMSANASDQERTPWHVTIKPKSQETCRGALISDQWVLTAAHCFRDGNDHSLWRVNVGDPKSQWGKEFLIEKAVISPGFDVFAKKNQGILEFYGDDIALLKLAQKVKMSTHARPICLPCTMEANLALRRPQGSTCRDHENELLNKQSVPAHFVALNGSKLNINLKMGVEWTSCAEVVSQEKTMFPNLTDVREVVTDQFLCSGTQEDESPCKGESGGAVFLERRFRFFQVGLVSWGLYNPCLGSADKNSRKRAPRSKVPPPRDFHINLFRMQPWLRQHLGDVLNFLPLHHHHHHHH

B1: RF16-214 (antibody, V domains shown)
VH: EVQLLESGGGLVQPGGSLRLSCAASGFTFSWYQMMWVRQAPGKGLEWVSRIYPSGGGTAYADSVKGRFTISRDNSKNTLYLQMNSLRAEDTAVYYCARDAGYGDNWGQGTLVTVSS
VL: QSALTQPPSVSVSPGQTASITCSGDKLGEKYASWYQQKAGQSPVMVIYQDRKRPSGIPERFSGSNSGNTATLTISGTQAMDEADYYCQAWDTRAVVFGGGTKLTVLG
- Fold diff [1]: 11 fold
- Fold diff [2]: 1 fold
- Fold diff [3]: 0 fold
- Fold diff [4]: 42 fold
